In patent US20050037969A1 (ARBOR VITA, published 2005):
Ends that are not written are not given here. * marks the point of attachment. Biotin = O=C1N[C@H]2[C@H](CS[C@H]2CCCCC(=O)*)N1

T1: GST-cytohesin binding protein PDZ domain fusion protein (Homo sapiens (Human), UniProt O60759 74-165)
T1 construct: also called CBP; not shown: glutathione S-transferase encoded by vector pGEX-3X (Pharmacia)
T1 sequence: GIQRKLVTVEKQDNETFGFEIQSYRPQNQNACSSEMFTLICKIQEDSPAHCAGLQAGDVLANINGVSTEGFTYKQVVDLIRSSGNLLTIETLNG

T2: GST-TAX-IP2 PDZ domain fusion protein (human, UniProt O14908 129-216)
T2 construct: also called TAX-1P2; TAX2; not shown: glutathione S-transferase encoded by vector pGEX-3X (Pharmacia)
T2 chain: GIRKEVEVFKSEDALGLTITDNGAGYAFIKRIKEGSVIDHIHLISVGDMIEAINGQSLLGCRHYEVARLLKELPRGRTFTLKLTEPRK

T3: GST-PTN-4 PDZ domain fusion protein (Homo sapiens (Human), UniProt P29074 517-605)
T3 construct: also called protein-tyrosine phosphatase meg1; not shown: glutathione S-transferase encoded by vector pGEX-3X (Pharmacia)
T3 sequence: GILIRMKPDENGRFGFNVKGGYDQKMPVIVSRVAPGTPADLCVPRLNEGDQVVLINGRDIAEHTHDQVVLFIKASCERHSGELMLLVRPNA

T4: SP short PDZ-GST fusion protein (Homo sapiens (Human), UniProt O43464 350-435)
T4 construct: The label SP short is not explained in the excerpts
T4 sequence: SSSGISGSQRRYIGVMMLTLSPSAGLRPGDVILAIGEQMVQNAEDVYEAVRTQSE

T5: K858 PDZ-GST fusion protein (Homo sapiens (Human), UniProt Q8WWI1 1038-1131)
T5 construct: Order of GST and PDZ part and limits not seen in the excerpts
T5 sequence: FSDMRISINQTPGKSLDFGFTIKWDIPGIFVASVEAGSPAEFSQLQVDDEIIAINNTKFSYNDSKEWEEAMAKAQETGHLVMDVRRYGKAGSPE

T6: GST-MPP1 PDZ domain fusion protein (Homo sapiens (Human), UniProt Q00013 67-152)
T6 construct: also called p55; 55 Kd erythrocyte membrane protein; not shown: glutathione S-transferase encoded by vector pGEX-3X (Pharmacia)
T6 sequence: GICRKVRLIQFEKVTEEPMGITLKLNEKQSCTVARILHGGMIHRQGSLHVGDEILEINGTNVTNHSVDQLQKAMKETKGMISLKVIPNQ

T7: GST-AF6 PDZ domain fusion protein (Homo sapiens (Human), UniProt P55196 1001-1093)
T7 construct: also called af-6 protein; not shown: glutathione S-transferase encoded by vector pGEX-3X (Pharmacia)
T7 sequence: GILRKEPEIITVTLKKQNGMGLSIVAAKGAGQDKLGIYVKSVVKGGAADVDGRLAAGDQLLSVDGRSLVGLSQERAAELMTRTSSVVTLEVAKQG

T8: GST-prIL16 fusion protein (PDZ domains 1-2) (Homo sapiens (Human), UniProt Q14005 1111-1324)
T8 construct: also called putative interleukin 16 precursor; not shown: glutathione S-transferase encoded by vector pGEX-3X (Pharmacia)
T8 sequence: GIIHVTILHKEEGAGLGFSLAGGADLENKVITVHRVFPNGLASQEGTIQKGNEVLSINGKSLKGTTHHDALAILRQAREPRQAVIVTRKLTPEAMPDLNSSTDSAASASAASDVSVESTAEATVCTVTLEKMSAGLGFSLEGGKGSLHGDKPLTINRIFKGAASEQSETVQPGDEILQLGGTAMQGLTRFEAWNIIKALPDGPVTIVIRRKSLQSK

T9: GST-RGS12 PDZ domain fusion protein (human, UniProt O14924 17-85)
T9 construct: also called human regulator of G-protein signalling 12; not shown: glutathione S-transferase encoded by vector pGEX-3X (Pharmacia)
T9 sequence: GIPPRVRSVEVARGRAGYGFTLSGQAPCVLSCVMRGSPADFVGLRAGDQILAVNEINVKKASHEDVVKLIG

T10: GST-TAX-IP40 PDZ domain fusion protein (human, UniProt Q6B4M5 150-252 (rat entry))
T10 construct: also called TAX40; not shown: glutathione S-transferase encoded by vector pGEX-3X (Pharmacia)
T10 sequence: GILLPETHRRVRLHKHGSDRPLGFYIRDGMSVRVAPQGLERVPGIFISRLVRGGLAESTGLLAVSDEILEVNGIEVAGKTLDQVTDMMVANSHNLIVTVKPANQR

T11: GST-KIAA0303 PDZ domain fusion protein (Homo sapiens (Human), UniProt O15021 1138-1228)
T11 construct: also called K303; not shown: glutathione S-transferase encoded by vector pGEX-3X (Pharmacia)
T11 sequence: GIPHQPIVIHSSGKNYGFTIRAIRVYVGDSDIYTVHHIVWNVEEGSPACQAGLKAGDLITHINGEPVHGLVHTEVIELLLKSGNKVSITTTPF

T12: ConEn PDZ-GST fusion protein (Homo sapiens (Human), UniProt Q969H4 193-287)
T12 construct: The label ConEn is not explained in the excerpts
T12 sequence: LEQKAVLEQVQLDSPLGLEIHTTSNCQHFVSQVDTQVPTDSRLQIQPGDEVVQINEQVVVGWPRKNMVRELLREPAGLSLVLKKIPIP

B1: CDw137 (4-1BB ILA) C-terminal peptide AA21L (peptide)
peptide: Biotin-QEEDGCSCRFPEEEEGGCEL
modifications: cysteine pairing not given here
notes: Marked (S), sticky peptide with high background; also called CDw137 (4-1BB ILA) (S)
B2: V-gated Ca2+ channel C-terminal peptide AA46L (peptide)
peptide: Biotin-SSGGRARHSYHHPDQDHWC
notes: Marked (S), sticky peptide with high background; also called V-gated Ca2+ channel (S)

These binders were tested against T13, PICK1 PDZ-GST fusion protein (Bos taurus (Bovine), UniProt Q2T9M1 17-105) (assay: A/G assays).
T13 construct: Order of GST and PDZ part and limits not seen in the excerpts
T13 sequence (Q2T9M1 other isoform, or with tags, fused parts or gaps limits assumed): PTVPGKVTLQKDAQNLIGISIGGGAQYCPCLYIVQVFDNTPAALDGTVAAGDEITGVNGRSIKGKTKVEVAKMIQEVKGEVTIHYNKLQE

Row | binding result | Binder
1 | no binding | Biotin-SVFSIPTLWSPWPPSSSSQL (also called CD3η; CD3-eta) [CD3n C-terminal peptide AA4L, biotinylated]
2 | no binding | Biotin-AWDDSARAAGGQGLHVTAL [LPAP C-terminal peptide AA30L, biotinylated]

Each binder was assayed against T1, GST-cytohesin binding protein PDZ … (assay: A/G assays).

Row | binding result | Binder
3 | no binding | B1
4 | no binding | B2
5 | no binding | Biotin-SVFSIPTLWSPWPPSSSSQL (also called CD3η; CD3-eta) [CD3n C-terminal peptide AA4L, biotinylated]
6 | no binding | Biotin-AWDDSARAAGGQGLHVTAL [LPAP C-terminal peptide AA30L, biotinylated]

Target: T2, GST-TAX-IP2 PDZ domain fusion protein
Assay: A/G assays

Row | binding result | Binder
7 | no binding | B1
8 | no binding | B2
9 | no binding | Biotin-SVFSIPTLWSPWPPSSSSQL (also called CD3η; CD3-eta) [CD3n C-terminal peptide AA4L, biotinylated]
10 | no binding | Biotin-AWDDSARAAGGQGLHVTAL [LPAP C-terminal peptide AA30L, biotinylated]

The binders below were run against T3, GST-PTN-4 PDZ domain fusion protein (assay: A/G assays).

Row | binding result | Binder
11 | no binding | B1
12 | no binding | B2
13 | no binding | Biotin-SVFSIPTLWSPWPPSSSSQL (also called CD3η; CD3-eta) [CD3n C-terminal peptide AA4L, biotinylated]
14 | no binding | Biotin-AWDDSARAAGGQGLHVTAL [LPAP C-terminal peptide AA30L, biotinylated]

Each binder was assayed against T14, NSP PDZ-GST fusion protein (Homo sapiens (Human), UniProt Q92743 370-466) (assay: A/G assays).
T14 construct: The label NSP is not explained in the excerpts
T14 sequence (Q92743 other isoform, or with tags, fused parts or gaps limits assumed): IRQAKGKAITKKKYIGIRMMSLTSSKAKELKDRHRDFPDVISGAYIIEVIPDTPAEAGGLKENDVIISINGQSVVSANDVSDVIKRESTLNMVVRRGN

Row | binding result | Binder
15 | no binding | Biotin-SVFSIPTLWSPWPPSSSSQL (also called CD3η; CD3-eta) [CD3n C-terminal peptide AA4L, biotinylated]
16 | no binding | Biotin-AWDDSARAAGGQGLHVTAL [LPAP C-terminal peptide AA30L, biotinylated]

These binders were tested against T4, SP short PDZ-GST fusion protein (assay: A/G assays).

Row | binding result | Binder
17 | no binding | Biotin-SVFSIPTLWSPWPPSSSSQL (also called CD3η; CD3-eta) [CD3n C-terminal peptide AA4L, biotinylated]
18 | no binding | Biotin-AWDDSARAAGGQGLHVTAL [LPAP C-terminal peptide AA30L, biotinylated]

These binders were tested against T15, NOS1 PDZ-GST fusion protein (Homo sapiens (Human), UniProt P29475 11-100) (assay: A/G assays).
T15 construct: Order of GST and PDZ part and limits not seen in the excerpts
T15 sequence (P29475 11-100 limits assumed): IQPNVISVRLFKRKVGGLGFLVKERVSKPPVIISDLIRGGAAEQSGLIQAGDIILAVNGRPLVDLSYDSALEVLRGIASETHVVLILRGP

Row | binding result | Binder
19 | no binding | B1
20 | no binding | B2
21 | no binding | Biotin-SVFSIPTLWSPWPPSSSSQL (also called CD3η; CD3-eta) [CD3n C-terminal peptide AA4L, biotinylated]

These binders were tested against T5, K858 PDZ-GST fusion protein (assay: A/G assays).

Row | binding result | Binder
22 | no binding | B1
23 | no binding | B2
24 | no binding | Biotin-SVFSIPTLWSPWPPSSSSQL (also called CD3η; CD3-eta) [CD3n C-terminal peptide AA4L, biotinylated]
25 | no binding | Biotin-AWDDSARAAGGQGLHVTAL [LPAP C-terminal peptide AA30L, biotinylated]

These binders were tested against T6, GST-MPP1 PDZ domain fusion protein (assay: A/G assays).

Row | binding result | Binder
26 | no binding | B1
27 | no binding | B2
28 | no binding | Biotin-SVFSIPTLWSPWPPSSSSQL (also called CD3η; CD3-eta) [CD3n C-terminal peptide AA4L, biotinylated]
29 | no binding | Biotin-AWDDSARAAGGQGLHVTAL [LPAP C-terminal peptide AA30L, biotinylated]

What follows are binders tested against T7, GST-AF6 PDZ domain fusion protein (assay: A/G assays).

Row | binding result | Binder
30 | no binding | B1
31 | no binding | B2
32 | no binding | Biotin-SVFSIPTLWSPWPPSSSSQL (also called CD3η; CD3-eta) [CD3n C-terminal peptide AA4L, biotinylated]
33 | no binding | Biotin-AWDDSARAAGGQGLHVTAL [LPAP C-terminal peptide AA30L, biotinylated]

The binders below were run against T8, GST-prIL16 fusion protein (PDZ domains …) (assay: A/G assays).

Row | binding result | Binder
34 | no binding | B1
35 | no binding | B2
36 | no binding | Biotin-SVFSIPTLWSPWPPSSSSQL (also called CD3η; CD3-eta) [CD3n C-terminal peptide AA4L, biotinylated]
37 | no binding | Biotin-AWDDSARAAGGQGLHVTAL [LPAP C-terminal peptide AA30L, biotinylated]

The binders below were run against T9, GST-RGS12 PDZ domain fusion protein (assay: A/G assays).

Row | binding result | Binder
38 | no binding | B1
39 | no binding | B2
40 | no binding | Biotin-SVFSIPTLWSPWPPSSSSQL (also called CD3η; CD3-eta) [CD3n C-terminal peptide AA4L, biotinylated]
41 | no binding | Biotin-AWDDSARAAGGQGLHVTAL [LPAP C-terminal peptide AA30L, biotinylated]

Each binder was assayed against T10, GST-TAX-IP40 PDZ domain fusion protein (assay: A/G assays).

Row | binding result | Binder
42 | no binding | B1
43 | no binding | B2
44 | no binding | Biotin-SVFSIPTLWSPWPPSSSSQL (also called CD3η; CD3-eta) [CD3n C-terminal peptide AA4L, biotinylated]
45 | no binding | Biotin-AWDDSARAAGGQGLHVTAL [LPAP C-terminal peptide AA30L, biotinylated]

These binders were tested against T11, GST-KIAA0303 PDZ domain fusion protein (assay: A/G assays).

Row | binding result | Binder
46 | no binding | B1
47 | no binding | B2
48 | no binding | Biotin-SVFSIPTLWSPWPPSSSSQL (also called CD3η; CD3-eta) [CD3n C-terminal peptide AA4L, biotinylated]
49 | no binding | Biotin-AWDDSARAAGGQGLHVTAL [LPAP C-terminal peptide AA30L, biotinylated]

What follows are binders tested against T16, GST-TIAM1 PDZ domain fusion protein (Homo sapiens (Human), UniProt Q13009 845-931) (assay: A/G assays).
T16 construct: also called TLAM1; T-lymphoma invasion and metastasis inducing protein 1; not shown: glutathione S-transferase encoded by vector pGEX-3X (Pharmacia)
T16 sequence (Q13009 other isoform, or with tags, fused parts or gaps): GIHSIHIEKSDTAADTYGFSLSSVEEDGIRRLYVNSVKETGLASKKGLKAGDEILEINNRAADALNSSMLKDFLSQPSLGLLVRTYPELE

Row | binding result | Binder
50 | no binding | B1
51 | no binding | B2
52 | no binding | Biotin-SVFSIPTLWSPWPPSSSSQL (also called CD3η; CD3-eta) [CD3n C-terminal peptide AA4L, biotinylated]
53 | no binding | Biotin-AWDDSARAAGGQGLHVTAL [LPAP C-terminal peptide AA30L, biotinylated]

The binders below were run against T12, ConEn PDZ-GST fusion protein (assay: A/G assays).

Row | binding result | Binder
54 | no binding | Biotin-SVFSIPTLWSPWPPSSSSQL (also called CD3η; CD3-eta) [CD3n C-terminal peptide AA4L, biotinylated]
55 | no binding | Biotin-AWDDSARAAGGQGLHVTAL [LPAP C-terminal peptide AA30L, biotinylated]
